Measurements reported in patent publication US11499162B2, “Plants having increased tolerance to herbicides” (BASF SE, priority 2016, dated 2022).

B1: F157A: mutated TriA variant of SEQ ID NO: 2 (protein)
chain: MQTLSIQHGTLVTMDQYRRVLGDSWVHVQDGRIVALGVHAESVPPPADRVIDARGKVVLPGFINAHTHVNQILLRGGPSHGRQLYDWLFNVLYPGQKAMRPEDVAVAVRLYCAEAVRSGITTINDNADSAIYPGNIEAAMAVYGEVGVRVVYARMFADRMDGRIQGYVDALKARSPQVELCSIMEETAVAKDRITALSDQYHGTAGGRISVWPAPAITPAVTVEGMRWAQAFARDRAVMWTLHMAESDHDERLHWMSPAEYMECYGLLDERLQVAHCVYFDRKDVRLLHRHNVKVASQVVSNAYLGSGVAPVPEMVERGMAVGIGTDDGNCNDSVNMIGDMKFMAHIHRAVHRDADVLTPEKILEMATIDGARSLGMDHEIGSIETGKRADLILLDLRHPQTTPHHHLAATIVFQAYGNEVDTVLIDGNVVMENRRLSFLPPERELAFLEEAQSRATAILQRANMVANPAWRSL
modifications: Pseudomonas
B2: L88AY167I: mutated TriA variant of SEQ ID NO: 2 (protein)
chain: MQTLSIQHGTLVTMDQYRRVLGDSWVHVQDGRIVALGVHAESVPPPADRVIDARGKVVLPGFINAHTHVNQILLRGGPSHGRQLYDWAFNVLYPGQKAMRPEDVAVAVRLYCAEAVRSGITTINDNADSAIYPGNIEAAMAVYGEVGVRVVYARMFFDRMDGRIQGIVDALKARSPQVELCSIMEETAVAKDRITALSDQYHGTAGGRISVWPAPAITPAVTVEGMRWAQAFARDRAVMWTLHMAESDHDERLHWMSPAEYMECYGLLDERLQVAHCVYFDRKDVRLLHRHNVKVASQVVSNAYLGSGVAPVPEMVERGMAVGIGTDDGNCNDSVNMIGDMKFMAHIHRAVHRDADVLTPEKILEMATIDGARSLGMDHEIGSIETGKRADLILLDLRHPQTTPHHHLAATIVFQAYGNEVDTVLIDGNVVMENRRLSFLPPERELAFLEEAQSRATAILQRANMVANPAWRSL
modifications: Pseudomonas
B3: L84VL88AY167I: mutated TriA variant of SEQ ID NO: 2 (protein)
chain: MQTLSIQHGTLVTMDQYRRVLGDSWVHVQDGRIVALGVHAESVPPPADRVIDARGKVVLPGFINAHTHVNQILLRGGPSHGRQVYDWAFNVLYPGQKAMRPEDVAVAVRLYCAEAVRSGITTINDNADSAIYPGNIEAAMAVYGEVGVRVVYARMFFDRMDGRIQGIVDALKARSPQVELCSIMEETAVAKDRITALSDQYHGTAGGRISVWPAPAITPAVTVEGMRWAQAFARDRAVMWTLHMAESDHDERLHWMSPAEYMECYGLLDERLQVAHCVYFDRKDVRLLHRHNVKVASQVVSNAYLGSGVAPVPEMVERGMAVGIGTDDGNCNDSVNMIGDMKFMAHIHRAVHRDADVLTPEKILEMATIDGARSLGMDHEIGSIETGKRADLILLDLRHPQTTPHHHLAATIVFQAYGNEVDTVLIDGNVVMENRRLSFLPPERELAFLEEAQSRATAILQRANMVANPAWRSL
modifications: Pseudomonas
B4: N70T: mutated TriA variant of SEQ ID NO: 2 (protein)
chain: MQTLSIQHGTLVTMDQYRRVLGDSWVHVQDGRIVALGVHAESVPPPADRVIDARGKVVLPGFINAHTHVTQILLRGGPSHGRQLYDWLFNVLYPGQKAMRPEDVAVAVRLYCAEAVRSGITTINDNADSAIYPGNIEAAMAVYGEVGVRVVYARMFFDRMDGRIQGYVDALKARSPQVELCSIMEETAVAKDRITALSDQYHGTAGGRISVWPAPAITPAVTVEGMRWAQAFARDRAVMWTLHMAESDHDERLHWMSPAEYMECYGLLDERLQVAHCVYFDRKDVRLLHRHNVKVASQVVSNAYLGSGVAPVPEMVERGMAVGIGTDDGNCNDSVNMIGDMKFMAHIHRAVHRDADVLTPEKILEMATIDGARSLGMDHEIGSIETGKRADLILLDLRHPQTTPHHHLAATIVFQAYGNEVDTVLIDGNVVMENRRLSFLPPERELAFLEEAQSRATAILQRANMVANPAWRSL
modifications: Pseudomonas
B5: L841L88AY167I: mutated TriA variant of SEQ ID NO: 2 (protein)
chain: MQTLSIQHGTLVTMDQYRRVLGDSWVHVQDGRIVALGVHAESVPPPADRVIDARGKVVLPGFINAHTHVNQILLRGGPSHGRQIYDWAFNVLYPGQKAMRPEDVAVAVRLYCAEAVRSGITTINDNADSAIYPGNIEAAMAVYGEVGVRVVYARMFFDRMDGRIQGIVDALKARSPQVELCSIMEETAVAKDRITALSDQYHGTAGGRISVWPAPAITPAVTVEGMRWAQAFARDRAVMWTLHMAESDHDERLHWMSPAEYMECYGLLDERLQVAHCVYFDRKDVRLLHRHNVKVASQVVSNAYLGSGVAPVPEMVERGMAVGIGTDDGNCNDSVNMIGDMKFMAHIHRAVHRDADVLTPEKILEMATIDGARSLGMDHEIGSIETGKRADLILLDLRHPQTTPHHHLAATIVFQAYGNEVDTVLIDGNVVMENRRLSFLPPERELAFLEEAQSRATAILQRANMVANPAWRSL
modifications: Pseudomonas
B6: A216S: mutated TriA variant of SEQ ID NO: 2 (protein)
chain: MQTLSIQHGTLVTMDQYRRVLGDSWVHVQDGRIVALGVHAESVPPPADRVIDARGKVVLPGFINAHTHVNQILLRGGPSHGRQLYDWLFNVLYPGQKAMRPEDVAVAVRLYCAEAVRSGITTINDNADSAIYPGNIEAAMAVYGEVGVRVVYARMFFDRMDGRIQGYVDALKARSPQVELCSIMEETAVAKDRITALSDQYHGTAGGRISVWPAPSITPAVTVEGMRWAQAFARDRAVMWTLHMAESDHDERLHWMSPAEYMECYGLLDERLQVAHCVYFDRKDVRLLHRHNVKVASQVVSNAYLGSGVAPVPEMVERGMAVGIGTDDGNCNDSVNMIGDMKFMAHIHRAVHRDADVLTPEKILEMATIDGARSLGMDHEIGSIETGKRADLILLDLRHPQTTPHHHLAATIVFQAYGNEVDTVLIDGNVVMENRRLSFLPPERELAFLEEAQSRATAILQRANMVANPAWRSL
modifications: Pseudomonas
B7: A216G: mutated TriA variant of SEQ ID NO: 2 (protein)
chain: MQTLSIQHGTLVTMDQYRRVLGDSWVHVQDGRIVALGVHAESVPPPADRVIDARGKVVLPGFINAHTHVNQILLRGGPSHGRQLYDWLFNVLYPGQKAMRPEDVAVAVRLYCAEAVRSGITTINDNADSAIYPGNIEAAMAVYGEVGVRVVYARMFFDRMDGRIQGYVDALKARSPQVELCSIMEETAVAKDRITALSDQYHGTAGGRISVWPAPGITPAVTVEGMRWAQAFARDRAVMWTLHMAESDHDERLHWMSPAEYMECYGLLDERLQVAHCVYFDRKDVRLLHRHNVKVASQVVSNAYLGSGVAPVPEMVERGMAVGIGTDDGNCNDSVNMIGDMKFMAHIHRAVHRDADVLTPEKILEMATIDGARSLGMDHEIGSIETGKRADLILLDLRHPQTTPHHHLAATIVFQAYGNEVDTVLIDGNVVMENRRLSFLPPERELAFLEEAQSRATAILQRANMVANPAWRSL
modifications: Pseudomonas

Type: biochemical
Conditions: pH 7.2
In short: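 TriA variants, N-His-tagged, were expressed in E. coli BL21(DE3) Gold with groEL/groES chaperones and purified by Ni-IDA affinity. Enzyme in 25 mM sodium phosphate pH 7.2 was incubated with azine substrates at 1 nM to 10 nM, 30° C. Products were identified by UPLC-HR-MS.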

| Molecule | Degradation in % of 6-cyclopentyl-N4-(2,3,4,5,6-pentafluorophenyl)-1,3,5-triazine-2,4-diamine | Degradation in % of Melamine |
| --- | --- | --- |
| B1 | 0% | 19% |
| B2 | 0% | 2% |
| B3 | 3% | 7% |
| B4 | 0% | 0% |
| B5 | 4% | 9% |
| B6 | 1% | 45% |
| B7 | 0% | 64% |
